# Experimental data taken from patent US20250313625A1 (ELPISCIENCE SUZHOU BIOPHARMA, published 2025).
# Substitutions are numbered along the chain they refer to. Names and notes keep the numbering of the source. Like-named read-outs stand apart in the source and are kept apart here.
# T1: human LAG3, full length, stably expressed on cells (human, UniProt P18627 23-525)
# T1 construct: whole, on cells; also called CHOK1-human LAG3
# T1 sequence (looked up): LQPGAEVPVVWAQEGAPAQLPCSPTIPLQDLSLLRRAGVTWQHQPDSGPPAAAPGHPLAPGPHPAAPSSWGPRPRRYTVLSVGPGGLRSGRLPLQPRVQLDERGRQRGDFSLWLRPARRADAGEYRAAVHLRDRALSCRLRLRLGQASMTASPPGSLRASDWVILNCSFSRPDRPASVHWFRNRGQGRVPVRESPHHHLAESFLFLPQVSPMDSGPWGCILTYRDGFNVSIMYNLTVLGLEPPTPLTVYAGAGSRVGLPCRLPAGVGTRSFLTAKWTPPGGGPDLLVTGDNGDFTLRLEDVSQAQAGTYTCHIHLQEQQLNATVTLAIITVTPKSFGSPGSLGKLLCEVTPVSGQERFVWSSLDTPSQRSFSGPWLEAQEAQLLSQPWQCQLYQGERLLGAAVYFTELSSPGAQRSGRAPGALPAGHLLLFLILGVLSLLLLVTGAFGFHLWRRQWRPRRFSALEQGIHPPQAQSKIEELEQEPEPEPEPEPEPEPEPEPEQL
# T2: human LAG3 ECD recombinant protein (plate coated, tag not stated) (human, UniProt P18627 23-450)
# T2 construct: extracellular domain
# T2 sequence (looked up): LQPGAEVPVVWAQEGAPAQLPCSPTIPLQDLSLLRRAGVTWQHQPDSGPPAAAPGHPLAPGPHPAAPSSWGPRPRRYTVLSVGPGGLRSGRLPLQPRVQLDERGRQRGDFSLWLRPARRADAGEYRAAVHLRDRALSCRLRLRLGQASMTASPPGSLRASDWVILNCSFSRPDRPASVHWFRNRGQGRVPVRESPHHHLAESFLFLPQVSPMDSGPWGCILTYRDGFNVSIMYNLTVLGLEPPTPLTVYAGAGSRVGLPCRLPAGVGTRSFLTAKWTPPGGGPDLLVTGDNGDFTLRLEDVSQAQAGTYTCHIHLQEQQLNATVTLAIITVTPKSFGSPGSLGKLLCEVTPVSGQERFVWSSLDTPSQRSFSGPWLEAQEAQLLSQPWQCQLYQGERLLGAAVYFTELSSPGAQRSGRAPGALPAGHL
# T3: LAG3 D1 domain extra loop peptide (biotin labelled (site not stated))
# T3 peptide: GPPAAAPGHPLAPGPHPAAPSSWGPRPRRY
# T4: human LAG3 (form used in Octet, Biacore and HDX-MS not given) (human, UniProt P18627 23-450, limits assumed)
# T4 sequence (looked up): T2 sequence (looked up)
# T5: mFc tagged human LAG3 ECD recombinant protein (human, UniProt P18627 23-450)
# T5 construct: extracellular domain; purchased from Biointron; not shown: mouse IgG Fc (mFc) tag
# T5 sequence (looked up): T2 sequence (looked up)
# T6: hFc tagged human LAG3 ECD recombinant protein (human, UniProt P18627 23-450)
# T6 construct: range 23-450; also called biotin labelled hFc tagged human LAG3 ECD; not shown: human IgG Fc tag
# T6 sequence (looked up): T2 sequence (looked up)
# B1: BAP-050 (antibody, V domains shown)
# VH: QIQLVQSGPELKKPGETVKISCKASGFTLTNYGMNWVRQTPGKGLKWMGWINTDTGEPTYADDFKGRFAFSLETSASTASLQINNLKNADTATYFCARNPPYYYGTNNAEAMDYWGQGTAVTVSS
# VL: DIQMTQTTSSLSASLGDRVTISCSSSQDISNYLNWYQQKPDGTVKVLIYYTSTLHLGVPSRFSGSGSGTDYSLTISNLELEDIATYYCQQYYNLPWTFGGGTKLEIK
# notes: also called BAP-50
# B2: hu021.269 (antibody, V domains shown)
# VH: QVQLQESGPGLVKPSQTLSLTCTVSGYSITSGYYWNWIRQHPGNKLEWIGDISYDGGNNYNPSLKNRVTISRDTSKNQFSLKLSSVTAADTAVYYCARDITLTGAMDYWGQGTTVTVSS
# VL: EIVLTQSPATLSLSPGERATLSCRASESVDNYGISFMHWYQQKPGQAPRLLIYRASNRESGIPARFSGSGSRTDFTLTISSLEPEDFAVYYCQQSNKDPYTFGQGTKLEIK
# notes: humanized from 021c
# B3: hu021.279 (antibody, V domains shown)
# VH: B2 VH with V2I, S15G, N36T, G56A, V68I, A89E, V93T
# VL: B2 VL with R58L, R72G
# notes: humanized from 021c; also called hu21.279
# B4: hu021.212 (antibody, V domains shown)
# VH: B2 VH with T30S, D55E
# VL: B2 VL with R58L, S60T
# notes: humanized from 021c
# B5: hu029.55 (antibody, V domains shown)
# VH: QVQLVESGGGLVKPGGSLRLSCAASGFTFSSYAMSWIRQAPGKGLEWVSYVTSGGDYIYYADTVKGRFTISRDDAKNSLYLQMNSLRAEDTAVYYCTRVAYDYEWYFDVWGQGTLVTVSS
# VL: DIQMTQSPSSVSASVGDRVTITCKASQDVTTAVAWYQQKPGKAPKLLIYSASYRYTGVPSRFSGSGSGTDFTLTISSLQPEDFATYYCQQHDSSPWTFGQGTKLEIK
# notes: humanized from 029c
# B6: hu023.11 (antibody, human IgG4, V domains shown)
# VH: QVQLVQSGPELKKPGASVKVSCKASGYTFTESPMNWVRQAPGQGFEWMGIIYTDTGEPTYAEEFKGRFVFSLDTSVSTAYLQISSLKAEDTAVYFCVSDYGSILYWYFDVWGQGTLVTVSS
# VL: B5 VL with V11L, T30S, A43S, L73F, D92Y, S93N, S94A, W96P
# notes: humanized from 023c
# B7: hu029.55.S93Q (antibody, V domains shown)
# VH: B5 VH
# VL: B5 VL with S93Q
# Legend:
# [1] = molecular target: T1, human LAG3, full length, stably …; experiment: FACS on 293F cells stably expressing human LAG3
# Procedure: (§1) Briefly the antibodies were incubated with 2×10⁵ target cells at 4° C. for 1 hour. After washing, fluorescence labeled anti-mouse IgG 2nd antibody (Life Technologies) was added and incubated at 4° C. for 1 hour. Geometric median fluorescence intensity (MFI) was detected and EC₅₀ was calculated using GraphPad Prism9.0.
# (§2) MFI was detected and EC₅₀ was calculated using GraphPad Prism9.0.
# [2] = molecular target: T2, human LAG3 ECD recombinant protein …; experiment: competitive ELISA format I: His-FGL1 binding to coated LAG3 ECD
# [3] = molecular target: T3, LAG3 D1 domain extra loop peptide; experiment: ELISA format I: biotin labelled LAG3 D1 domain extra loop peptide on plate coated antibody; axis printed as Ab Conc. (nM)
# Procedure: In ELISA binding assay of format I (FIG. 9A), biotin labelled LAG3 D1 domain extra loop peptide was incubated with ELISA microplate coated anti-LAG3 antibodies. After washing, HRP labeled anti-SA 2nd antibody (Sigma) was added and incubated at 37° C. for 1 hour. Then, 100 μl/well of TMB solution (Biotechnology) was added. After incubation for 15 minutes at room temperature, the reaction was stopped by the addition of 50 μl of 1N HCl. OD 450 nm was read. In ELISA binding assay of format II (FIG. 9B), biotin labelled LAG3 D1 domain extra loop peptide and anti-LAG3 antibodies were co-incubated in ELISA microplate coated with SA. After washing, HRP labeled anti-human Fc 2nd antibody (Sigma) was added and incubated at 37° C. for 1 hour. Then, 100 μl/well of TMB solution (Biotechnology) was added. After incubation for 15 minutes at room temperature, the reaction was stopped by the addition of 50 μl of 1N HCl. OD 450 nm was read.
# [4] = molecular target: T4, human LAG3 (form used in Octet, Biacore …); experiment: BLI (Octet), 1:1 fit
# Procedure: (§3) The association and dissociation curves were fit with 1:1 binding model, and the Ka/Kd/KD values for each antibody were calculated.
# as §3
# [5] = molecular target: T1, human LAG3, full length, stably …; experiment: FACS on CHOK1 cells stably expressing human LAG3
# Procedure: as §2
# [6] = molecular target: T5, mFc tagged human LAG3 ECD recombinant …; experiment: competitive FACS: mFc tagged human LAG3 ECD binding to MHC II on Raji cells
# Procedure: (§4) Activity of the purified chimeric antibodies to block LAG3 and MHC II interaction was determined by competitive FACS assay. […] After washing, dye labeled anti-mouse Fc 2nd antibody (Sigma) was added and incubated at 37° C. for 1 hour. Fluorescence intensity was detected.
# [7] = molecular target: T5, mFc tagged human LAG3 ECD recombinant …; experiment: as above; remark: listed apart in the source
# Procedure: as §4
# [8] = molecular target: T4, human LAG3 (form used in Octet, Biacore …); experiment: BLI (Octet)
# [9] = molecular target: T4, human LAG3 (form used in Octet, Biacore …); experiment: SPR (Biacore), 1:1 fit
# Procedure: as §3
# [10] = molecular target: T1, human LAG3, full length, stably …; experiment: FACS on 293F cells stably expressing human LAG3; remark: listed apart in the source
# Procedure: as §1, §2
# [11] = molecular target: T5, mFc tagged human LAG3 ECD recombinant …; experiment: competitive FACS: mFc-LAG3 ECD binding to Raji cells (MHC II)
# Procedure: as §4
# [12] = molecular target: T6, hFc tagged human LAG3 ECD recombinant …; experiment: competitive ELISA format II: biotin hFc-LAG3 ECD binding to coated His-FGL1
# Procedure: After washing, HRP labeled anti-His 2nd antibody (Sigma) was added and incubated at 37° C. for 1 hour. Then, 100 μl/well of TMB solution (Biotechnology) was added. After incubation for 15 minutes at room temperature, the reaction was stopped by the addition of 50 μl of 1N HCl. OD 450 nm was read. […] After washing, HRP labeled anti-SA 2nd antibody (Sigma) was added and incubated at 37° C. for 1 hour. Then, 100 μl/well of TMB solution (Biotechnology) was added. After incubation for 15 minutes at room temperature, the reaction was stopped by the addition of 50 μl of 1N HCl. OD 450 nm was read. […] The competition assay of format III is a competitive FACS assay. […] After washing, dye labeled anti-His 2nd antibody (Sigma) was added and incubated at 37° C. for 1 hour. Fluorescence intensity was detected.
binder,measurement,setting,value
B1,EC50,[1],1.7 nM
same,TOP MFI,[1],267
same,Blocking ratio at 66.7 nM (%),[2],39.3%
same,binding result,[3],no binding (tested: about 300 nM)
B2,Kd,[4],6.95 nM
same,koff,[4],0.00314 s⁻¹
same,kon,[4],451000 M⁻¹ s⁻¹
same,EC50,[5],2.3 nM
same,TOP MFI,[5],598
same,%Blocking at 2 nM,[6],9.9%
same,%Blocking at 4 nM,[6],30.4%
same,%Blocking at 8 nM,[6],70.2%
B3,Kd,[4],3.57 nM
same,koff,[4],0.00313 s⁻¹
same,kon,[4],877000 M⁻¹ s⁻¹
same,EC50,[5],0.4 nM
same,TOP MFI,[5],669
same,%Blocking at 2 nM,[6],20%
same,%Blocking at 4 nM,[6],40.3%
same,%Blocking at 8 nM,[6],98.5%
B4,EC50,[5],1.8 nM
same,TOP MFI,[5],586
same,%Blocking at 2 nM,[6],4.6%
same,%Blocking at 4 nM,[6],23.9%
same,%Blocking at 8 nM,[6],71.5%
B5,Kd,[4],4.42 nM
same,koff,[4],0.0197 s⁻¹
same,kon,[4],4.47e+06 M⁻¹ s⁻¹
same,%Blocking at 2 nM,[6],18.9%
same,%Blocking at 4 nM,[6],37.5%
same,%Blocking at 8 nM,[6],98.8%
same,%Blocking at 4 nM,[7],26%
same,%Blocking at 8 nM,[7],96.7%
B6,Kd,[8],0.0782 nM
same,koff,[8],2.37e-05 s⁻¹
same,kon,[8],303000 M⁻¹ s⁻¹
same,Kd,[9],0.0205 nM
same,koff,[9],9.1e-05 s⁻¹
same,kon,[9],4.43e+06 M⁻¹ s⁻¹
same,EC50,[10],0.17 nM
same,TOP MFI,[10],3140
same,IC50,[11],5.8 nM
same,TOP blocking (%),[11],99.3%
same,IC50,[12],1.2 nM
same,TOP blocking (%),[12],83.9%
B7,Kd,[4],4.08 nM
same,koff,[4],0.0207 s⁻¹
same,kon,[4],5.06e+06 M⁻¹ s⁻¹
same,%Blocking at 4 nM,[7],62.8%
same,%Blocking at 8 nM,[7],99.4%
